Where no end group is shown, it is not given here.
Molecular target: Nogo binding sites (axonal Nogo receptors) on chick dorsal root ganglion neurons (chick)
Test: competition with 10 nM AP-Nogo binding to chick E12 DRG neurons (FIG. 3b)

Binder: RIYKGVIQAIQKSDEGHPFRAYLESEVAISEELVQKYSNS (not fully specified) [Pep2-41 (2-41 fragment of Nogo)]
- Ki: 150 nM
